Measured values published in the DeepSol protein solubility set.

test: soluble on expression in E. coli; label from the status in PepcDB or PDB records

Row | Sequence | soluble on expression in E. coli
1 | MSQHNEKNPHQHQSPLHDSSEAKPGMDSLAPEDGSHRPAAEPTPPGAQPTAPGSLKAPDTRNEKLNSLEDVRKGSENYALTTNQGVRIADDQNSLRAGSRGPTLLEDFILREKITHFDHERIPERIVHARGSAAHGYFQPYKSLSDITKADFLSDPNKITPVFVRFSTVQGGAGSADTVRDIRGFATKFYTEEGIFDLVGHNTPIFFIQDAHKFPDFVHAVKPEPHWAIPQGQSAHDTFWDYVSLQPETLHNVMWAMSDRGIPRSYRTMEGFGIHTFRLINAEGKATFVRFHWKPLAGKASLVWDEAQKLTGRDPDFHRRELWEAIEAGDFPEYELGFQLIPEEDEFKFDFDLLDPTKLIPEELVPVQRVGKMVLNRNPDNFFAENEQAAFHPGHIVPGLDFTNDPLLQGRLFSYTDTQISRLGGPNFHEIPINRPTCPYHNFQRDGMHRMGIDTNPANYEPNSINDNWPRETPPGPKRGGFESYQERVEGNKVRERSPSFGEYYSHPRLFWLSQTPFEQRHIVDGFSFELSKVVRPYIRERVVDQLAHIDLTLAQAVAKNLGIELTDDQLNITPPPDVNGLKKDPSLSLYAIPDGDVKGRVVAILLNDEVRSADLLAILKALKAKGVHAKLLYSRMGEVTADDGTVLPIAATFAGAPSLTVDAVIVPCGNIADIADNGDANYYLMEAYKHLKPIALAGDARKFKATIKIADQGEEGIVEADSADGSFMDELLTLMAAHRVWSRIPKIDKIPA | soluble
2 | MGSDKIHHHHHHMTIDTSFNFKSDTPAEKDPDTWSPTLAAYHKLLWSKSLPNGRVFTLEYEKPPFYLRHRSDVGEFCLSSDTVVPSFRKKTIDGVAKDEMNFGGLGYTIGGMMVFPAIPIERKWTINQARGCNRKISDRFDLTVECIRRYYSDAQSPLDDVLRRYVDFFTLFRDFAGYVEFFHLQDVVNSDFTAVKFFLPFEDFEATSPIPQSRDAYLQYRSAAIDFLNARNQRIQNWVAKNIKG | not soluble
3 | MASEMIVDHRQKAFELLKVDAEKILKLIRVQMDNLTMPQCPLYEEVLDTQMFGLSREIDFAVRLGLVDEKDGKDLLYTLERELSALHDAFTAK | soluble
4 | MKLIAVLNLLNQLSNKNSLEEYLNGVIDFLSGWTGCENIGIRVLREAGLAPYVVHRGFDKDFIASESCISVEGDECVCLRVLKQQFKSEDQDHISAAGTYYAPNFYRYVEELREDQLLNFRGLCAHKQFKSLAVIPLLHQGKVVGAIHIADIKDGVFSEEDIHFIETIRPLVAEAIYRHNLEKALEHHHHHH | not soluble
5 | MIKEFCAENLTLLPTLDAGQISRVELCDNLAVGGTTPSYGVIKEACQLLHDKKISVATMIRPRGGDFVYNDLELKAMEEDILKAVEAGSDALVLGLLTTENQLDTDAIEQLLPATQGLPLVFHMAFDRIPTDHQHQALDQLIDYGFVRVLTHGSPEATPITDNVEQLKSLVTYANKRIEIMIGGGITAENCQSLSQLTGTAIVHGTKII | not soluble
6 | MPDYDLIAILGPTASGKTPFAAALAAELNTEIISADSRQIYRGMDLGTGKDLEDYTINGRQIPYHLIDIADPGYKYNVFEYQRDFLTAYETIKQKGCLPVLCGGTGLYLESVLKGYRLIPVPENQELRVRLAEKSLEELTAILSSYKTLHNSTDVDTVKRAIRAIEIEEYYAKTPIEEREFPQLNSLIIGVDIDRELRREKITRRLKQRLDDGMVEEVRRLLAEGIQPDDLIYYGLEYKYLTLYAIGKMTYDEMFTGLETAIHQFAKRQMTWFRGMERRGFTIHWVDASLPMEEKINFVKQKLKEFLEHHHHHH | soluble
7 | MPYVFLLSPQLEIASQWDGYYEKTFEVSDHVHKEIILKVSGQTVLITGSGSGLGRLMAFEFGKLGARLVLWDINEQGNKETLKELEAMGVEVWTCNIFHIYRFIR | not soluble
8 | MSLEKQKLIKLIDVAAGRKKADLVLKNAKIVDVFQAKILTGDIAISDGYIAGIGGSYQGVVECNYTGKYVAPGFIEAHIHIESSYVSPEEFSRVFIPRGTTTILADPHEIVNVAGLKGLDYMVNAAKNAKMDIRYMMPPCVPATNFETSGADLYADDMEDALKTGEVDGLAELMNFPGVINADDKMIDEILMAKKYGARIDGHAPQVVGKDLNAYIAAGPANDHECSTLEEAEERLARGMYLLLREGSVTQDLRKLLPIVNTANSRRCLLSGDDVQAKTAINKGHLDNSIRICIDEGLNPITAIQMATLNPAEYCGLNDRGAIAPGRRADMVVFESLEDFAVEETYILGEKLSQGNEYLGEVNYYPIDSVESSMHVKDFTREKLQLHLNSDKVRAIGVVPGEVLTTEEHVTVKRDGDGNFVYNDQEDVTKIVVVERHHNTGNVNVNLLSGYGIKAGAIAISIGHDSHNIIATGTNDDDIFMAVNELIKQEGGAVVVKDEKVISRMELKIAGLMCNLPAEKMIAQQDALDEAVHEELGVPDNVNPVMTLSFMPLAVIPKLKITDKGLVDVEKNAFVSNELDEGHHHHHH | soluble
9 | MKKIGFVGAGSMAEAMINGILQSGITKPEHIYITNRSNDERLIELKETYSVRPCRDKNEFFTHTDIIILAFKPKDAAESIDSIRPYIKDQLVISVLAGLTIETIQHYFGRKLAVIRVMPNTSAAIRKSATGFSVSTEASKNDIIAAKALLETIGDATLVEERHLDAVTAIAGSGPAYVYRYIEAMEKAAQKVGLDKETAKALILQTMAGATDMLLQSGKQPEKLRKEITSPGGTTEAGLRALQDSRFEEAIIHCIEETAKRSAEIKEQFAGAALERHSLEHHHHHH | soluble
10 | MGMELILREWMGKEKDYSISYSTYMNLVLYTEGHGYYMKEREKIGRQGDFFTSSNVSSVFAKTFAKLFIRLVENGEVASNICEVGGGTGKFAYDVLQEWKQLSPNTFINLNYSMIEVSPFHRKLQQEQLGSFSNVSYYTSYSEMGDSFEGILFSNELFDAFPVEVIEKRNGILYEVRITYTEEGNLSEVCRPLNKRIGRYLLKYNIHIAEGQRFEVPIVMEEYIKEISKWFQKGICITVDYGYTKEEWMHPAHREGSLRGYYQHKLMRNPLAHPGEMDLTTHVHWDELKEMFSMQGMSAVWHKKQSEFLLAAGILEQLTSHQDTNPFSETQKQNRAVRSMILNGGVGSSFDVVIHTKDMQHLHLDQYVTILEHHHHHH | soluble
11 | MLDPELIGNPEDILEKPALKILGKEVEVYDLSNPFGYGVPLWPYFNDVIIDRYHYHAKSRVLSQIITTTMHVSTHADAPIHVEEGFPSIDEVPIERYMGEGVVVSIPKKKWEVITAEDLEKADPPIEKGDIVIVNTGWHRYWSDSVKYFCYAPGFYKEAGEWFVKKKVKAVGIDTQALDHPLATREAWHHPGADERNSILPWLKEEYKQLTGRDVSEDFPYWEPCHRLLLTHGIMGWENVGGDIDKVTGQRCTIIGLPIRWVKGDGSIVRLVALVEKR | soluble
12 | MGSDKIHHHHHHMKPLRKIRLGIVGCGIAARELHLPALKNLSHLFEITAVTSRTRSHAEEFAKMVGNPAVFDSYEELLESGLVDAVDLTLPVELNLPFIEKALRKGVHVICEKPISTDVETGKKVVELSEKSEKTVYIAENFRHVPAFWKAKELVESGAIGDPVFMNWQIWVGMDENNKYVHTDWRKKPKHVGGFLSDGGVHHAAAMRLILGEIEWISAVAKDLSPLLGGMDFLSSIFEFENGTVGNYTISYSLKGNERFEITGTKGKISISWDKIVLNEEEMKVPQENSYQKEFEDFYQVVAEGKPNDLGSPVQALKDLAFIEACVRSAGNKVFVSSLL | soluble
13 | MGSDKIHHHHHHMNSNQLAFTIPISREMINIANKLSQQQRNEQKTREVYLNTLALLAVEFFCQCMEIETEFSKSYGLDSVVLSLMNTASIFIKDKGLLECRPVLPREDFCEIPAEILSERIGYMVVEIDELDRQAKIVGFVESVSNEKLALSKLGSLQDFLIYLQKLQKIENYDPSNPDISEIARNQLNESIVKLSKWFKGLLDSGWEYELAIAKDIPNVLAVPKDISPVNVTDKEEVGGARIIHLMHLSEPVLLILRQTRLSPDEIEIILRLYPASESIFLLDGIKMTLLDEKDNPIRQLEKQAKASNWLQLRFKGNVGDKFSLKISFRGDSVITKFII | not soluble
14 | SDLGAITKYSALHAKPNGLILQYGTAGFRTKAEHLDHVMFRMGLLAVLRSKQTKSTIGVMVTASHNPEEDNGVKLVDPLGEMLAPSWEEHATCLANAEEQDMQRVLIDISEKEAVNLQQDAFVVIGRDTRPSSEKLSQSVIDGVTVLGGQFHDYGLLTTPQLHYMVYCRNTGGRYGKATIEGYYQKLSKAFVELTKQASCSGDEYRSLKVDCANGIGALKLREMEHYFSQGLSVQLFNDGSKGKLNHLCGADFVKSHQKPPQGMEIKSNERCCSFDGDADRIVYYYHDADGHFHLIDGDKIATLISSFLKELLVEIGESLNIGVVQTAYANGSSTRYLEEVMKVPVYCTKTGVKHLHHKAQEFDIGVYFEANGHGTALFSTAVEMKIKQSAEQLEDKKRKAAKMLENIIDLFNQAAGDAISDMLVIEAILALKGLTVQQWDALYTDLPNRQLKVQVADRRVISTTNAERQAVTPPGLQEAINDLVKKYKLSRAFVRPSGTEDVVRVYAEADSQESADHLAHEVSLAVFQLAGGIGERPQPGF | not soluble
15 | MGSDKIHHHHHHMLSDKQKKHILVNRDGLKYYTVEGLEKVHEEMLRLLLIIDTIAKENNIPYWIDGGSLIGIVRHKGFIPWDDDLDISLLKKDYLRLIKEISMYCEMHNDVALFYNEPLVEHTCNFFASKKVFSRTQGSCVLVPVKIDIRPVNCIVKNKDNVIENNIYRDTANYIIFGKSYGYMKKTLSHKNEQMDFLEYYNYKYGLVDSGLENVIMVHPYFEFSNTFELTYNDLFPLKMLQFENMLLPVPNNYDYLLKELYGDYMSYPNICHRAPVACQIYQRQLKDNRFNLCLSMFKHTNRGLLYRMRIILVQIRLLGVFEYMKIKIYE | not soluble
16 | GSEDFTFDGTKRLSVNYVKGILQPTDTCDIWDKIWNFQAKPDDLLISTYPKAGTTWTQEIVELIQNEGDVEKSKRAPTHQRFPFLEMKIPSLGSGLEQAHAMPSPRILKTHLPFHLLPPSLLEKNCKIIYVARNPKDNMVSYYHFQRMNKALPAPGTWEEYFETFLAGKVCWGSWHEHVKGWWEAKDKHRILYLFYEDMKKNPKHEIQKLAEFIGKKLDDKVLDKIVHYTSFDVMKQNPMANYSSIPAEIMDHSISPFMRKGAVGDWKKHFTVAQNERFDEDYKKKMTDTRLTFHFQF | soluble
17 | SMKYKLNVLLAEIALIGTGNHYHEEANCIAEWLHLKGEEEAVQLIRLSSLMNRGDYASALQQGNKLAYPDLEPWLALCEYRLGLGSALESRLNRLARSQDPRIQTFVNGMREQLKT | soluble
18 | MKLSKIKLPYFMNELTLTELDMGVAVPKILQAFKPYVDHQGLWIDLEMSYNGSFLMTLETKMNLTKLGKEPLVEALKVGEIGKEGCRPRAFCLADSDEESSSAGSSEEDDAPEPSGGDKQLLPGAEGYVGGHRTSKIMRFVDKITKSKYFQKATETEFIKKKIEEVSNTPLLLTVEVQECRGTLAVNIPPPPTDRVWYGFRKPPHVELKARPKLGEREVTLVHVTDWIEKKLEQEFQKVFVMPNMDDVYITIMHSAMDPRSTSCLLKDPPVEAADQP | not soluble
19 | KKLKKIVNSYINLGFEVTTKRETIQIDDLVPTQATVYEDELYGRAYELKRGLAEPIIVIKTNNNEKYILVDGHHRAVAACLSDIKELEAHVLEIDTDKKMGIEKTAEKQGLKSLSDIKILDEDKMNCSSAYKLKANILEM | not soluble
20 | MPIYEYACHACGLEKEHLQKMSDAPIANCPACGSSDYVKKVSAAGFQLKGTGWYVTDFRNKNTRSDSKPKEESGKEAADTDKAAATTTTDSTTATATTASTSTTAPTVSSVD | not soluble
